Laboratory results reported in patent US20050053985A1.

Molecular target: 3′-end processing factors
Experiment: immunoprecipitation under standard salt conditions

- percent of the 3′-end processing factors associated: < 1%
Substance: tRNA endonuclease
